Residue numbers refer to the chain shown, from its start.
B1: wild-type LptH (natural protein, Pseudomonas aeruginosa, UniProt Q9HVV7 25-175, looked up)
chain: LPSDREQPIRVQADSAELDDKQGVAVYRGDVVVTQGSTKLTGNTVTLKQDKNGDIEVVTSVGKPAYYEQKPAPDKDVTKAYGLTIQYFVTQNRVVLIDQAKVIQEGNTFEGEKIVYDTQRQIVNAGRATGSQVTSPRPRIDMVIQPKKKAQ
notes: Cloned NdeI/HindIII into pET28b; the vector's linker between the His tag and the protein is not described; no tag removal is described; also called LptH6His; PA4460; not shown: His6, N-terminal, kept
B2: LptH_β15mut (natural protein)
chain: B1 chain with V123E, N124P, A125D
notes: not shown: His6, N-terminal, kept
B3: LptH_β15del (natural protein)
chain: LPSDREQPIRVQADSAELDDKQGVAVYRGDVVVTQGSTKLTGNTVTLKQDKNGDIEVVTSVGKPAYYEQKPAPDKDVTKAYGLTIQYFVTQNRVVLIDQAKVIQEGNTFEGEKIVYDTQRQIGRATGSQVTSPRPRIDMVIQPKKKAQ
notes: As m1 with a 3-residue deletion in strand β15; aggregation prevented concentrations above 0.9 mg/mL; not shown: His6, N-terminal, kept

Target: the molecule itself
Assay: SEC; 100 uL of purified protein (0.9-2.0 mg/mL, a stated concentration for each variant) on a TSK-GEL G3000PWXL column, 20 mM Tris-HCl pH 8.0, 250 mM NaCl, 0.7 mL/min, detection at 280 nm; oligomerization state estimated from the apparent MW by a calibration curve

Row | Protein | stoichiometry N
1 | B1 | 2
2 | B2 | 2
3 | B3 | 2
